Source: article PMC3351151 (Nucleic Acids Research, 2012)

Biological target: the molecule itself
Assay: crystal structure

B1: His-HypR (His-tagged HypR, wild type), oxidized by diamide or NaOCl (natural protein, B. subtilis, UniProt P37486 1-125, looked up)
chain: MSEKKNIYPNKEGCPVEFTLDVIGGKWKGILFYHMIDGKKRFNEFRRICPSITQRMLTLQLRELEADGIVHREVYHQVPPKVEYSLTEFGRTLEPIVLQMKEWGESNRDVLESYRSNGLVKDQQK
modifications: Cys14-Cys49' intersubunit disulphide after oxidation with diamide or NaOCl
stoichiometry N: 2
